In the supplement of paper PMC9112550, “Optimization of the antimicrobial peptide Bac7 by deep mutational scanning” (BMC Biology, 2022):

Tested on: Escherichia coli TOP10
Test: shrunken log2 fold change of peptide-encoding DNA abundance (4.5 h post-induction vs induction); higher = less antimicrobial activity (less host growth inhibition)
Conditions: time post-induction: 4.5 h; library: site-saturation at positions 5, 18, 19, 20
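Further: peptides expressed intracellularly from a pBAD plasmid library in pooled LB shake-flask culture, induced with 0.3% L-arabinose, DNA abundance read by NGS, three biological replicates, DESeq2 with apeglm shrinkage.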

Sequence | shrunken log2 fold change
RRIRIRPPRLPRPRPRPVWDPRP | -0.14
RRIRRRPPRLPRPRPRPSIAPRP | 0.238
RRIRDRPPRLPRPRPRPKQFPRP | -0.00831
RRIRDRPPRLPRPRPRPWWPPRP | 0.0881
RRIRPRPPRLPRPRPRPARKPRP | 0.705
RRIRIRPPRLPRPRPRPRFYPRP | -0.124
RRIRHRPPRLPRPRPRPLHGPRP | 0.00793
RRIRMRPPRLPRPRPRPTTGPRP | 0.467
RRIRYRPPRLPRPRPRPLNKPRP | -0.449
RRIRNRPPRLPRPRPRPQPRPRP | 0.507
RRIRSRPPRLPRPRPRPRHPPRP | 0.215
RRIRDRPPRLPRPRPRPGMHPRP | 0.0286
RRIRGRPPRLPRPRPRPFCPPRP | -0.0253
RRIRERPPRLPRPRPRPHLPPRP | -0.136
RRIRNRPPRLPRPRPRPWVEPRP | -0.109
RRIRHRPPRLPRPRPRPGVWPRP | 0.178
RRIRFRPPRLPRPRPRPTVQPRP | 0.0692
RRIRYRPPRLPRPRPRPNVTPRP | -0.573
RRIRHRPPRLPRPRPRPQMLPRP | -0.0829
RRIRLRPPRLPRPRPRPAHDPRP | 0.189
RRIRARPPRLPRPRPRPQFRPRP | -0.123
RRIRVRPPRLPRPRPRPNLHPRP | -0.239
RRIRQRPPRLPRPRPRPQMWPRP | 0.0113
RRIRARPPRLPRPRPRPSCLPRP | -0.0189
RRIRRRPPRLPRPRPRPYEVPRP | -0.0692

Sequence | shrunken log2 fold change
RRIRIRPPRLPRPRPRPCQGPRP | -0.0156
RRIRRRPPRLPRPRPRPTWYPRP | 0.0312
RRIRLRPPRLPRPRPRPLWPPRP | 0.302
RRIRHRPPRLPRPRPRPWVLPRP | -0.776
RRIRQRPPRLPRPRPRPWKMPRP | -0.112
RRIRPRPPRLPRPRPRPVYVPRP | -0.167
RRIRSRPPRLPRPRPRPISGPRP | -0.176
RRIRDRPPRLPRPRPRPGNTPRP | -0.165
RRIRPRPPRLPRPRPRPKQTPRP | 0.327
RRIRMRPPRLPRPRPRPDLPPRP | -0.0325
RRIRPRPPRLPRPRPRPKFKPRP | 0.0351
RRIRARPPRLPRPRPRPYIIPRP | -0.445
RRIRARPPRLPRPRPRPCPEPRP | 0.179
RRIRFRPPRLPRPRPRPEHKPRP | -0.0193
RRIRHRPPRLPRPRPRPIQMPRP | -0.00723
RRIRWRPPRLPRPRPRPGRWPRP | 0.742
RRIRNRPPRLPRPRPRPQVLPRP | -0.0163
RRIRVRPPRLPRPRPRPGMLPRP | -0.333
RRIRCRPPRLPRPRPRPSDPPRP | -0.317
RRIRWRPPRLPRPRPRPAFNPRP | -0.116
RRIRWRPPRLPRPRPRPGYDPRP | -0.0098
RRIRGRPPRLPRPRPRPMWNPRP | 0.557
RRIRCRPPRLPRPRPRPDEIPRP | 0.146
RRIRARPPRLPRPRPRPMFMPRP | 0.749
RRIRKRPPRLPRPRPRPLFTPRP | 0.331

Sequence | shrunken log2 fold change
RRIRWRPPRLPRPRPRPSVIPRP | -0.272
RRIRYRPPRLPRPRPRPEAGPRP | -0.0468
RRIRPRPPRLPRPRPRPHNMPRP | -0.745
RRIRLRPPRLPRPRPRPVEQPRP | -0.0062
RRIRQRPPRLPRPRPRPMCVPRP | -0.308
RRIRRRPPRLPRPRPRPIDTPRP | -0.307
RRIRMRPPRLPRPRPRPVWAPRP | 0.466
RRIRARPPRLPRPRPRPISSPRP | -0.102
RRIRHRPPRLPRPRPRPRQCPRP | -0.0969
RRIRSRPPRLPRPRPRPSEVPRP | -0.015
RRIRDRPPRLPRPRPRPITYPRP | 0.024
RRIRKRPPRLPRPRPRPCLEPRP | 0.0959
RRIRPRPPRLPRPRPRPGDWPRP | 0.432
RRIRGRPPRLPRPRPRPTYNPRP | 0.0375
RRIRVRPPRLPRPRPRPISLPRP | -0.0572
RRIRIRPPRLPRPRPRPKQWPRP | -0.0255
RRIRGRPPRLPRPRPRPENAPRP | 1.03
RRIRARPPRLPRPRPRPSGLPRP | 0.0354
RRIRIRPPRLPRPRPRPLITPRP | -0.71
RRIRKRPPRLPRPRPRPGAFPRP | 0.369
RRIRRRPPRLPRPRPRPEKGPRP | -0.0235
RRIRERPPRLPRPRPRPSSNPRP | -0.0512
RRIRNRPPRLPRPRPRPPMCPRP | 0.154
RRIRRRPPRLPRPRPRPSIHPRP | -0.337
RRIRVRPPRLPRPRPRPPIDPRP | 0.0721

Sequence | shrunken log2 fold change
RRIRNRPPRLPRPRPRPCCYPRP | -0.0141
RRIRKRPPRLPRPRPRPHYLPRP | 0.0182
RRIRIRPPRLPRPRPRPRFDPRP | -0.282
RRIRCRPPRLPRPRPRPVQQPRP | 0.148
RRIRPRPPRLPRPRPRPWTVPRP | -0.155
RRIRNRPPRLPRPRPRPVLVPRP | -0.211
RRIRFRPPRLPRPRPRPYCWPRP | -0.652
RRIRNRPPRLPRPRPRPLDLPRP | 0.00897
RRIRWRPPRLPRPRPRPATGPRP | 0.0426
RRIRVRPPRLPRPRPRPCQKPRP | -0.0265
RRIRTRPPRLPRPRPRPWKKPRP | 0.0414
RRIRCRPPRLPRPRPRPCFHPRP | -0.597
RRIRVRPPRLPRPRPRPQRLPRP | 0.275
RRIRTRPPRLPRPRPRPHVKPRP | -0.126
RRIRNRPPRLPRPRPRPERGPRP | 0.296
RRIRSRPPRLPRPRPRPQSPPRP | -0.0599
RRIRFRPPRLPRPRPRPNYMPRP | -0.254
RRIRYRPPRLPRPRPRPNRGPRP | -0.124
RRIRARPPRLPRPRPRPQSPPRP | -0.0671
RRIRTRPPRLPRPRPRPLHAPRP | 0.143
RRIRCRPPRLPRPRPRPETAPRP | 0.308
RRIRRRPPRLPRPRPRPYQCPRP | 0.0675
RRIRSRPPRLPRPRPRPMIDPRP | -0.249
RRIRNRPPRLPRPRPRPWPGPRP | 0.281
RRIRKRPPRLPRPRPRPFPQPRP | 0.11

Sequence | shrunken log2 fold change
RRIRQRPPRLPRPRPRPFRRPRP | 0.0238
RRIRKRPPRLPRPRPRPRGLPRP | 0.41
RRIRGRPPRLPRPRPRPPFAPRP | 1.91
RRIRDRPPRLPRPRPRPKSMPRP | -0.0219
RRIRPRPPRLPRPRPRPYFKPRP | -0.796
RRIRRRPPRLPRPRPRPLMEPRP | -0.0263
RRIRWRPPRLPRPRPRPRIQPRP | 0.273
RRIRFRPPRLPRPRPRPDDIPRP | -0.0253
RRIRYRPPRLPRPRPRPMHVPRP | 0.214
RRIRWRPPRLPRPRPRPEIMPRP | 1.1
RRIRVRPPRLPRPRPRPKCYPRP | 0.0107
RRIRQRPPRLPRPRPRPMQLPRP | -0.15
RRIRMRPPRLPRPRPRPIGQPRP | 0.00911
RRIRSRPPRLPRPRPRPWQGPRP | 0.0115
RRIRTRPPRLPRPRPRPADWPRP | 0.446
RRIRHRPPRLPRPRPRPMVGPRP | -0.0276
RRIRRRPPRLPRPRPRPRFEPRP | 0.582
RRIRERPPRLPRPRPRPPYVPRP | -0.524
RRIRDRPPRLPRPRPRPNSKPRP | -0.506
RRIRARPPRLPRPRPRPHRMPRP | -0.0562
RRIRGRPPRLPRPRPRPYSLPRP | -0.158
RRIRNRPPRLPRPRPRPGNCPRP | -0.00183
RRIRTRPPRLPRPRPRPENMPRP | -0.468
RRIRMRPPRLPRPRPRPRDEPRP | 1.43
RRIRDRPPRLPRPRPRPMWLPRP | 0.015
